According to patent US20210115121A1:

Molecular target: human Tau P301S from brain of P301S Tau transgenic mice (human) (UniProt P10636)
Assay: cell-based or functional assay

Sequence of human Tau P301S from brain of P301S Tau transgenic mice (human) (P10636 other isoform, or with tags, fused parts or gaps P301S P301S P301S P301S): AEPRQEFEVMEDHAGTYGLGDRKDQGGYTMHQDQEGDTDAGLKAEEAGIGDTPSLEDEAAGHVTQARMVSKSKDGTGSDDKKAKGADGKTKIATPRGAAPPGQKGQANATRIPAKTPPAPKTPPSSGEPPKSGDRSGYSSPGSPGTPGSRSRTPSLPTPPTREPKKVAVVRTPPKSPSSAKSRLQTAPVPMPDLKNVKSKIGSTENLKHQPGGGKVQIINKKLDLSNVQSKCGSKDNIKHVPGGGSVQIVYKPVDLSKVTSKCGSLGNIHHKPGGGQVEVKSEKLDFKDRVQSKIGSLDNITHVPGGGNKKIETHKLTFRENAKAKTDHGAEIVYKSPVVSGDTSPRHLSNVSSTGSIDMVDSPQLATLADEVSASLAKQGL

- IC50 (cellular Tau aggregation assay): 2 nM
- Imax (maximal efficacy at 300 nM, cellular Tau aggregation assay): 93%
B1: AB1 having a rat VL of SEQ ID NO: 7 and a rat VH of SEQ ID NO.:8 (antibody, IgG1, V domains shown)
VH: EVKLEESGPGLMQPSETLSLTCTVSGFSLTSNDIAWVRQPLGKGLVWMGTIWTDGSTNYNSAVQSRLSISRDTSKSQFFLKMNSLQPEDTGTYYCARHRLYYGAFDYWGQGTMVTVS
VL: DIVMTQTPVSLSVTLGDQASISCRSSQSLEYSDGYTYLEWYLQKPGQSPQLLIYEVSNRFSGVPDRFIGSGSGTDFTLKISRVEPEDLGVYYCFQATHNPYTFGAGTKLEIK
